Laboratory results from patent publication US20240376188A1 (UNIVERSITY OF NORTH CAROLINA AT CHAPEL HILL, published 2024).
Ends that are not written are not given here.

T1: acetylated peptide at residue K280 (276QIIN-K-Ac-KLDLSNVQSC) (human)
T1 construct: Coated at 1 ug/ml on 96-well plates; also called acetylated tau peptide
T1 peptide: QIINK(Ac)KLDLSNVQSC

B1: 19B6 (antibody, V domains shown)
VH: EVQLQQSGAEFVRPGASVKLSCTVSGLNIEDDYIQWLKQRPEQGLEWIGWIDPENGDPKYASKFQGKATLTADTSSKIAYLHLSSLTSEDTAVYYCATRGLWGQGTTLTVSS
VL: QIVLTQSPAIMSASLGERVTMTCTASSSVSSSYFHWYQQKPGSSPKLWIYSTSNLASGVPVRFSGSGSGTSYSLTISSMEAEDAATYYCHQYHRSPLTFGAGTKLELK
notes: Used as hybridoma supernatant in the peptide ELISA; also called Ac-K280 clone 19B6
B2: 17G8 (antibody, V domains shown)
VH: B1 VH
VL: B1 VL
notes: Used as hybridoma supernatant in the peptide ELISA; also called Ac-K280 clone 17G8

Target: T1, acetylated peptide at residue K280 …
Assay: peptide ELISA, peptide coated at 1 ug/ml, hybridoma supernatant diluted 1:10 to 1:2,500
Experimental: FIG. 13 includes an ELISA assay showing two K280 clones, 19B6 and 17G8, preferentially detect acetylated vs, non-acetylated tau peptides. Standard peptide ELISAs were performed with 1 μg/ml acetylated peptides at residue K280 (276QIIN-K-Ac-[…] (SEQ ID NO:17)) vs, non-acetylated peptides (276[…] (SEQ ID NO: 16)) and used to coat 96-well plates followed by washing with coating buffer (Phosphate Buffered Saline, pH 7.4) and incubated with serial dilutions of hybridoma supernatants (diluted from 1:10 to 1:2,500). Monoclonal antibodies were […] Horseradish peroxidase (HRP)-labeled secondary antibodies and colorimetric ELISAs were performed using a BMG/BioTek® multiplate reader at a standard absorbance setting of 450 nm with auto-mixing and blanking.

Binder | binding result
B1 | binds
B2 | binds
